In US5968782:

Target: mouse fibrinogen (mouse) (UniProt E9PV24)

fibrinogenolysis assay: time required for thrombin to clot mouse plasma | time required for thrombin to clot mouse plasma (control) | Substance
> 40 s |  | recombinant mMCP-7-FLAG (EK-activated mature mouse mast cell protease 7 with C-terminal FLAG peptide) (enzyme)
 | 15 s | thrombin (enzyme)
